Assay results: publication PMC3686892

Tested on: C=C(OP(=O)(O)O)C(=O)O
Assay: anti-pHis dot-blot assay of autophosphorylation velocity
Assay type: biochemical, Escherichia coli
Settings: phosphoryl donor; n = 3

## enzyme I (PtsI) (Escherichia coli K-12)
  Km: 135 ± 30 µM
